# According to patent US20110059064A1:
# T1: mouse Kv1.1 channel stably expressed in L929 cells (mouse), P16388
# T1 chain: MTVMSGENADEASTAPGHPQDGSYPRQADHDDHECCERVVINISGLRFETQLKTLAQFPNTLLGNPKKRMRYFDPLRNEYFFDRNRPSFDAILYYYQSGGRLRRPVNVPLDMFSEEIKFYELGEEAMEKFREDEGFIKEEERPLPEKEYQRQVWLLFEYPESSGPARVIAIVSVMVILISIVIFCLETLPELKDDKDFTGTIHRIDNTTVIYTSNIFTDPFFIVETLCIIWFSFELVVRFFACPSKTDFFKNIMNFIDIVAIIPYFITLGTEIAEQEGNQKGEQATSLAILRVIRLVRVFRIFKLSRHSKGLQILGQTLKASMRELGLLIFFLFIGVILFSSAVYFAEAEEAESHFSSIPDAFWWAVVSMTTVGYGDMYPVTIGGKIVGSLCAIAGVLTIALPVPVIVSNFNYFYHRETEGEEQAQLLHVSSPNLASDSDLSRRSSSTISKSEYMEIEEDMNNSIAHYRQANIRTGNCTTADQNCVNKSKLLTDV
# Assays:
# [1] = target: EGFP-tagged human IKCa1 Ca2+-activated K channel expressed in Cos-7 cells (human), O15554
# Chain of EGFP-tagged human IKCa1 Ca2+-activated K channel expressed in Cos-7 cells (human), O15554 (O15554 whole entry): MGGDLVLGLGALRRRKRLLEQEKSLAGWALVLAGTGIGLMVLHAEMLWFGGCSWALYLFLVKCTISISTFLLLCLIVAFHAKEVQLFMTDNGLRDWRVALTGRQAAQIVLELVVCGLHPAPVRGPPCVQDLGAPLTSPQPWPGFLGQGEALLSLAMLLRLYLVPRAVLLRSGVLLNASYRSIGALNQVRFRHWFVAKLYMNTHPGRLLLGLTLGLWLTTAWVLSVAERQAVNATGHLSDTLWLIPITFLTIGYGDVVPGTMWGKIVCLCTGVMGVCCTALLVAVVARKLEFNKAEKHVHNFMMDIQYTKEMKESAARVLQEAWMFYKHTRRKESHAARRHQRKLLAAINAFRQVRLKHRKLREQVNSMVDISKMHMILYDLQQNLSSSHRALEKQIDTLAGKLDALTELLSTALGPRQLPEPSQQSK
# [2] = target: human Kv1.2 channel expressed in Cos-7 cells (human), P16389
# Chain of human Kv1.2 channel expressed in Cos-7 cells (human), P16389 (P16389 whole entry): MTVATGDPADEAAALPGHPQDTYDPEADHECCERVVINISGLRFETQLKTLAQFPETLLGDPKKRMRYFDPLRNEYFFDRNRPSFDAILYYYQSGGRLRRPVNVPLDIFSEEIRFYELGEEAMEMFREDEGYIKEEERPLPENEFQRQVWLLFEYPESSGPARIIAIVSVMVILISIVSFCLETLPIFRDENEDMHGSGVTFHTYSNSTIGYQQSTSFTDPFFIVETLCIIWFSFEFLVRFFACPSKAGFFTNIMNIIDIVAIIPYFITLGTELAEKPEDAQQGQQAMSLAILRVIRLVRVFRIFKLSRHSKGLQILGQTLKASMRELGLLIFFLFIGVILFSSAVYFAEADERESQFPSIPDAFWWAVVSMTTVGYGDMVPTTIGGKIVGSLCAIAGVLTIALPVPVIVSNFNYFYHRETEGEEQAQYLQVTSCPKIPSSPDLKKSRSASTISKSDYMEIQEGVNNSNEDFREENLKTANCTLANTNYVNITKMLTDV
# [3] = target: T1, mouse Kv1.1 channel stably expressed in …
# [4] = target: T2, human voltage-gated potassium channel Kv1.3, expressed endogenously in human peripheral blood T cells (human), P22001
# T2 sequence (P22001 whole entry): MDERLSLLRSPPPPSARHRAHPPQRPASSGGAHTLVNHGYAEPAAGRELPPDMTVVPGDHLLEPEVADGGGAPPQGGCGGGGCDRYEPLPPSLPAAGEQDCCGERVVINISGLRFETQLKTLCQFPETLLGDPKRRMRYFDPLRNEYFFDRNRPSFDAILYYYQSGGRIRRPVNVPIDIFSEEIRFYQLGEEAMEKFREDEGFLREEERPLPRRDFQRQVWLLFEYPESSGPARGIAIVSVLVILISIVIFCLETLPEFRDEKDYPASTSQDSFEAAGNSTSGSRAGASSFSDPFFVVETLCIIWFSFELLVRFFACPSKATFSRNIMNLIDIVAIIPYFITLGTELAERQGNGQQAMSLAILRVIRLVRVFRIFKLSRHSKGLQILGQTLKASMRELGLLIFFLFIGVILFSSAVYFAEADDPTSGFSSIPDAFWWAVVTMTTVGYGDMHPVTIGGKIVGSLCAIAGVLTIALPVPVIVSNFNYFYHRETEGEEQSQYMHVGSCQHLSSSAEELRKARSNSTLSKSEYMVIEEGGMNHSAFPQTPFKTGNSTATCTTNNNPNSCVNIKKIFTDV
# [5] = target: T2, human voltage-gated potassium channel …; remark: listed apart in the source
binder,measurement,setting,value
AAAISCVGSPECPPKCRAQGCKNGKCMNRKCKCYYC (modifications not checked) [Vm24 (native peptide purified from the venom of Vaejovis mexicanus smithi)],Kd,[1],14 nM
same,selectivity for hKv1.3 over hIKCa1 (fold),[1],> 4500 fold
same,Kd,[2],5 to 10 nM
same,selectivity for hKv1.3 over hKv1.2 (fold),[2],> 1500 fold
same,Kd,[3],30 to 40 nM
same,selectivity for hKv1.3 over mKv1.1 (fold),[3],> 10000 fold
same,koff,[4],0.00026 s⁻¹
same,time constant for washout,[4],3800 s
same,Kd,[5],0.0029 nM
